US8106168B2, “Metalloproteinase binding proteins” (Dyax Corp., priority 2005, dated 2012)

Columns and labels:
MMP-16 [1] = molecular target: T1, MMP-16 (Homo sapiens, UniProt P51512); experiment: Cross-reactivity of Fabs and IgGs with MMP-16 (Example 8); assay type: biochemical; parameters: key to MMP-16 (cross-reactivity, class symbol): X: Does not inhibit MMP-16 at [I] = 100 nM level; conditions: 5 nM MMP16, 30 minutes at 30° C., 10 μM substrate
Method: For the studies summarized in Tables 13 and 14, 100 nM anti-MMP-14 Fab/IgG were incubated with 5 nM MMP16 for 30 minutes at 30° C., 10 μM of substrate was added, and the MMP-16 activity was measured.

MMP-14 [2] = molecular target: T2, MMP-14 (Homo sapiens, UniProt P50281); experiment: Selection and phage ELISA screening of anti-MMP-14 Fabs; assay type: binding; conditions: Fab from FAB310 phage display library
Outline: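 Phage ELISA screened 95 clones from each of rounds 2 and 3 against biotinylated MMP-14 (1 μg/ml) captured on streptavidin, in TRIS/CaCl2/NaCl pH 7.5. The clones came from Fab library selections on biotinylated MMP-14, either free or TIMP-2-complexed (500 nM round 1, 100 nM later rounds). Elution used 2.5 μM TIMP-2 followed by TEA.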

MMP-14 [3] = molecular target: T2, MMP-14; experiment: IC50 for MMP-14 inhibition by Fabs and IgGs; assay type: biochemical; conditions: Fab
Method: MMP-14 binding proteins can be characterized in assays that measure their modulatory activity toward MMP-14 or fragments thereof in vitro or in vivo. For example, MMP-14 can be combined with a substrate such as Mca-Pro-Leu-Ala-Cys(Mob)-Trp-Ala-Arg-Dap(Dnp)-NH2 under assay conditions permitting cleavage by MMP-14. The assay is performed in the absence of the MMP-14 binding protein, and in the presence of increasing concentrations of the MMP-14 binding protein. The concentration of binding protein at which 50% of the MMP-14 activity (e.g., binding to the substrate) is inhibited is the IC50 value (Inhibitory Concentration 50%) or EC50 (Effective Concentration 50%) value for that binding protein.

MMP-24 = MMP-24 (Homo sapiens, UniProt Q9Y5R2); experiment: Cross-reactivity of Fabs with MMP-24 (Example 9); assay type: biochemical; parameters: key to MMP-24 (cross-reactivity, class symbol): X: Do not inhibit MMP-16 or MMP-24 at [I] = 100 nM level; Y: partially inhibit at [I] = 100 nM level; conditions: Fab, 100 nM final inhibitor concentration; 5 nM MMP-24
Method: (§1) For the studies summarized in Table 15, 1 μM of anti-MMP-14 Fab/IgG (100 nM final inhibitor concentration) were incubated with 5 nM of MMP-16 or 5 nM of MMP-24 for 30 minutes at 30° C., 10 μM of substrate was added, and the MMP-16 activity was measured.

MMP-16 [4] = molecular target: T1, MMP-16; experiment: Cross-reactivity of Fabs with MMP-16 (Example 9); assay type: biochemical; parameters: key: X: Do not inhibit MMP-16 or MMP-24 at [I] = 100 nM level; Y: partially inhibit at [I] = 100 nM level; conditions: Fab, 100 nM final inhibitor concentration, 5 nM MMP-16
Method: as §1

[5] = test system: Tumor Cells Expressing MMP-14 (HT-1080, LNCaP, MDA-MB-231, PC3); experiment: Binding of IgGs to tumor cells, immunocytochemistry and flow cytometry; assay type: cell-based, human; conditions: ICC versus flow cytometry
Method: The ability of twelve biotinylated-MMP-14 binding IgGs to bind to tumor cells expressing MMP-14 was evaluated using both immunocytochemistry (ICC) and flow cytometry. The cell lines tested were HT-1080 (a human fibrosarcoma cell line), LNCaP (human, prostate, carcinoma), MDA-MB-231 (human, breast, adenocarcinoma), or PC3 (Human prostatic cancer cells) cells. MMP-14 is expressed on HT-1080 cells (Cancer Res. (2005) 65(23):10959-69.). MMP-14 is expressed on PC-3 cells (Oncol Rep. (2006) 15(1):199-206). LNCaP express MMP-14 (Endocrinology (2003) 144(5):1656-1663) at a relatively low level. […] MMP-14 is expressed by MDA-MB-231 cells (Int J Cancer. (2005) 114(4):544-554.).
Cells (2×10^5) were cultivated on cell culture slides in complete medium. At confluency, cells were washed with PBS and fixed with 4% paraformaldehyde for 30 minutes at room temperature. Endogenous peroxidases were blocked with 3% hydrogen peroxide for 20 minutes. Nonspecific binding sites were blocked by incubation with 10% heat inactivated human serum 10% normal rabbit serum for 30 minutes at room temperature. Cells were then incubated with biotinylated or non-biotinylated MMP-14 binding proteins at 10 μg/ml for 2 hours at room temperature. […] Binding was detected with the substrate AEC+(25 minutes at room temperature in the dark). […]

T1 sequence (P51512 120-607): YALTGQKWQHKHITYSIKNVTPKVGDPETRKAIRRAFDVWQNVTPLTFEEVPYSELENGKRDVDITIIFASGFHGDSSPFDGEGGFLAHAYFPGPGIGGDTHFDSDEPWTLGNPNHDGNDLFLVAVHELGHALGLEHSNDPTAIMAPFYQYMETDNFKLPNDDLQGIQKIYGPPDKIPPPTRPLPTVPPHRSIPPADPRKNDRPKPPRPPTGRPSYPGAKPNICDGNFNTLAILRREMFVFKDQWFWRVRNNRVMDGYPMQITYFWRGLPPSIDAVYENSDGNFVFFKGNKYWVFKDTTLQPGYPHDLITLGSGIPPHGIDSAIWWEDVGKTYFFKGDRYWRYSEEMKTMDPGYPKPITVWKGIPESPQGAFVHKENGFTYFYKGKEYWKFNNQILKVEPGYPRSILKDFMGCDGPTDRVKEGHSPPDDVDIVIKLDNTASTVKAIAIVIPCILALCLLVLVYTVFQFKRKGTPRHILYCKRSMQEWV
Sequence of MMP-24 (Q9Y5R2 156-645): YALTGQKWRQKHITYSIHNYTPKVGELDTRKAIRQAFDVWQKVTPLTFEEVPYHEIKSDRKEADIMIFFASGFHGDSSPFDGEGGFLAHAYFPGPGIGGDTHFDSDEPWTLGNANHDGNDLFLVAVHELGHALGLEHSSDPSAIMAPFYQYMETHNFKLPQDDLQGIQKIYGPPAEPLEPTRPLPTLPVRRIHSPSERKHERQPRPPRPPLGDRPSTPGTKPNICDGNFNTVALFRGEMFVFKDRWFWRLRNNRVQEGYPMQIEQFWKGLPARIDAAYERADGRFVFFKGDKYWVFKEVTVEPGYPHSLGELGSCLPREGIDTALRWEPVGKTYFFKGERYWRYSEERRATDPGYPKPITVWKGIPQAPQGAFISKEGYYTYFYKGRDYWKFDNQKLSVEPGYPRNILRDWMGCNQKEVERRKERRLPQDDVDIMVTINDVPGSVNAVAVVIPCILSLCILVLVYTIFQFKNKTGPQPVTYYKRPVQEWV

MMP-16 (cross-reactivity, class symbol) (MMP-16 [1]; Fab 100 nM): X
MMP-16 (cross-reactivity, class symbol) (MMP-16 [1]; IgG 100 nM): X
bind to human MMP-14 (MMP-14 [2]): bind to human MMP-14
bind to and inhibit human MMP-14 (MMP-14 [3]): bind to and inhibit human MMP-14
MMP-24 (cross-reactivity, class symbol) (MMP-24): X
MMP-16 (cross-reactivity, class symbol) (MMP-16 [4]): X
B1: M0038-F08: human antibody (Fab, IgG) that binds and inhibits MMP-14; HC SEQ ID NO: 158, LC SEQ ID NO: 159 (antibody, V domains shown)
VH: EVQLLESGGGLVQPGGSLRLSCAASGFTFSRYKMWWVRQAPGKGLEWVSGIRPSGGLTRYADSVKGRFTISRDNSKNTLYLQMNSLRAEDTAVYYCARRGDYVGGFDYWGQGTLVTVSS
VL: QDIQMTQSPGTLSLSPGERATLSCRASQSVSSSYLAWYQQKPGQAPRLLIYGASSRATGIPDRFSGSGSGTDFTLTISRLEPEDFAVYYCQHYGGSQAFGGGTKVEIK
modifications: Synthetically generated peptide
Staining, remark on method [5]: (only positive in immunocytochemistry, ICC)
